The values that follow come from patent US10196657B2, “Methods of producing 7-carbon chemicals via methyl-ester shielded carbon chain elongation” (INVISTA North America S.á r.l., priority 2012, dated 2019).

Type in all cases: biochemical
A short description of assay [1]: ω-transaminase activity assay, 7-aminoheptanol to 7-oxoheptanol. As for the experimental part: A nucleotide sequence encoding an N-terminal His-tag was added to the Chromobacterium violaceum, Pseudomonas syringae and Rhodobacter sphaeroides genes encoding the ω-transaminases of SEQ ID NOs: 8, 10 and 11, respectively (see FIGS. 7F and 7G) such that N-terminal HIS tagged ω-transaminases could be produced. The modified genes were cloned into a pET21a expression vector under the T7 promoter. Each expression vector was transformed into a BL21[DE3] E. coli host. Each resulting recombinant E. coli strain were cultivated at 37° C. in a 250 mL shake flask culture containing 50 mL LB media and antibiotic selection pressure, with shaking at 230 rpm. Each culture was induced overnight at 16° C. using 1 mM IPTG.
(§1) The pellet from each induced shake flask culture was harvested via centrifugation. Each pellet was resuspended and lysed via sonication. The cell debris was separated from the supernatant via centrifugation and the cell free extract was used immediately in enzyme activity assays.
Enzyme activity assays in the reverse direction (i.e., 7-aminoheptanol to 7-oxoheptanol) were performed in a buffer composed of a final concentration of 50 mM HEPES buffer (pH=7.5), 10 mM 7-aminoheptanol, 10 mM pyruvate, and 100 μM pyridoxyl 5′ phosphate. Each enzyme activity assay reaction was initiated by adding cell free extract of the ω-transaminase gene product or the empty vector control to the assay buffer containing the 7-aminoheptanol and then incubated at 25° C. for 4 h, with shaking at 250 rpm. The formation of L-alanine was quantified via RP-HPLC.

The nature of assay [2]: ω-transaminase activity assay, reverse direction (7-aminoheptanoate to pimelate semialdehyde). To be noted: cell free extract, 10 mM 7-aminoheptanoate, 10 mM pyruvate, 25° C., 4 h; against empty vector control; FIG. 15. As for the experimental part:
(§2) A sequence encoding an N-terminal His-tag was added to the genes from Chromobacterium violaceum, Pseudomonas syringae, Rhodobacter sphaeroides, and Vibrio Fluvialis encoding the ω-transaminases of SEQ ID NOs: 8, 10, 11 and 13, respectively (see FIGS. 7F and 7G) such that N-terminal HIS tagged ω-transaminases could be produced. Each of the resulting modified genes was cloned into a pET21a expression vector under control of the T7 promoter and each expression vector was transformed into a BL21[DE3] E. coli host. The resulting recombinant E. coli strains were cultivated at 37° C. in a 250 mL shake flask culture containing 50 mL LB media and antibiotic selection pressure, with shaking at 230 rpm. Each culture was induced overnight at 16° C. using 1 mM IPTG.
as §1
Enzyme activity assays in the reverse direction (i.e., 7-aminoheptanoate to pimelate semialdehyde) were performed in a buffer composed of a final concentration of 50 mM HEPES buffer (pH=7.5), 10 mM 7-aminoheptanoate, 10 mM pyruvate and 100 μM pyridoxyl 5′ phosphate. Each enzyme activity assay reaction was initiated by adding cell free extract of the ω-transaminase gene product or the empty vector control to the assay buffer containing the 7-aminoheptanoate and incubated at 25° C. for 4 h, with shaking at 250 rpm. The formation of L-alanine from pyruvate was quantified via RP-HPLC.

Assay [3] can be described thus: ω-transaminase activity assay, forward direction (pimelate semialdehyde to 7-aminoheptanoate). The settings on record: for acceptance of pimelate semialdehyde as substrate (formation of pyruvate from L-alanine, RP-HPLC): cell free extract, 10 mM pimelate semialdehyde, 10 mM L-alanine, 25° C., 4 h, against empty vector control, FIG. 16; for acceptance of pimelate semialdehyde as substrate, synthesizing 7-aminoheptanoate (conclusion from confirmed reversibility): concluded from reversibility of the ω-transaminase activity. The method, then:
as §2, §1
Enzyme activity in the forward direction (i.e., pimelate semialdehyde to 7-aminoheptanoate) was confirmed for the transaminases of SEQ ID NO 10, SEQ ID NO 11 and SEQ ID NO 13. Enzyme activity assays were performed in a buffer composed of a final concentration of 50 mM HEPES buffer (pH=7.5), 10 mM pimelate semialdehyde, 10 mM L-alanine and 100 μM pyridoxyl 5′ phosphate. Each enzyme activity assay reaction was initiated by adding a cell free extract of the ω-transaminase gene product or the empty vector control to the assay buffer containing the pimelate semialdehyde and incubated at 25° C. for 4 h, with shaking at 250 rpm. The formation of pyruvate was quantified via RP-HPLC.

A short description of assay [4]: Carboxylate reductase activity assay, N7-acetyl-7-aminoheptanoate to N7-acetyl-7-aminoheptanal. The settings on record: purified enzyme enhanced by sfp gene product, 2 mM substrate, room temperature, 20 min; against empty vector control; FIG. 12. As for the experimental part:
The activity of each of the N-terminal His-tagged carboxylate reductases of SEQ ID NOs: 3, 6, and 7 (see Examples 4, and FIGS. 7B, 7E, and 7F) for converting N7-acetyl-7-aminoheptanoate to N7-acetyl-7-aminoheptanal was assayed in triplicate in a buffer composed of a final concentration of 50 mM HEPES buffer (pH=7.5), 2 mM N7-acetyl-7-aminoheptanoate, 10 mM MgCl2, 1 mM ATP, and 1 mM NADPH. The assays were initiated by adding purified carboxylate reductase and phosphopantetheine transferase or the empty vector control to the assay buffer containing the N7-acetyl-7-aminoheptanoate then incubated at room temperature for 20 min. The consumption of NADPH was monitored by absorbance at 340 nm.

B1: SEQ ID NO 10: Pseudomonas syringae ω-transaminase, Genbank Accession No. AAY39893.1 (protein, listed as Pseudomonas syringae)
chain: MSANNPQTLEWQALSSEHHLAPFSDYKQLKEKGPRIITRAEGVYLWDSEGNKILDGMSGLWCVAIGYGREELADAASKQMRELPYYNLFFQTAHPPVLELAKAISDIAPEGMNHVFFTGSGSEGNDTMLRMVRHYWALKGQPNKKTIISRVNGYHGSTVAGASLGGMTYMHEQGDLPIPGVVHIPQPYWFGEGGDMTPDEFGIWAAEQLEKKILELGVENVGAFIAEPIQGAGGVIVPPDSYWPKIKEILSRYDILFAADEVICGFGRTSEWFGSDFYGLRPDMMTIAKGLTSGYVPMGGLIVRDEIVAVLNEGGDFNHGFTYSGHPVAAAVALENIRILREEKIVERVRSETAPYLQKRLRELSDHPLVGEVRGVGLLGAIELVKDKTTRERYTDKGAGMICRTFCFDNGLIMRAVGDTMIIAPPLVISFAQIDELVEKARTCLDLTLAVLQG
B1: the “acceptance of 7-aminoheptanol as substrate (formation of L-alanine, RP-HPLC)” value in assay [1] (cell free extract, 10 mM 7-aminoheptanol, 10 mM pyruvate, 25° C., 4 h, against empty vector control, FIG. 19) was “accepted 7-aminoheptanol as substrate”. Besides, in assay [1] (concluded from reversibility of the ω-transaminase activity (Example 2)), the “acceptance of 7-oxoheptanol as substrate, forming 7-aminoheptanol (concluded from reversibility)” value is on record as “accept 7-oxoheptanol as substrate”. In addition, in assay [2], the “acceptance of 7-aminoheptanoate as substrate (formation of L-alanine from pyruvate, RP-HPLC)” value is reported as “accepted 7-aminoheptanote as substrate”. In assay [3], the “acceptance of pimelate semialdehyde as substrate (formation of pyruvate from L-alanine, RP-HPLC)” value is reported as “accepted pimelate semialdehyde as substrate” and the “acceptance of pimelate semialdehyde as substrate, synthesizing 7-aminoheptanoate (conclusion from confirmed reversibility)” value is given as “accepted pimelate semialdehyde as substrate”.

B2: SEQ ID NO 6: Mycobacterium massiliense carboxylate reductase, Genbank Accession No. EIV11143.1 (protein)
chain: MTNETNPQQEQLSRRIESLRESDPQFRAAQPDPAVAEQVLRPGLHLSEAIAALMTGYAERPALGERARELVIDQDGRTTLRLLPRFDTTTYGELWSRTTSVAAAWHHDATHPVKAGDLVATLGFTSIDYTVLDLAIMILGGVAVPLQTSAPASQWTTILAEAEPNTLAVSIELIGAAMESVRATPSIKQVVVFDYTPEVDDQREAFEAASTQLAGTGIALETLDAVIARGAALPAAPLYAPSAGDDPLALLIYTSGSTGAPKGAMHSENIVRRWWIREDVMAGTENLPMIGLNFMPMSHIMGRGTLTSTLSTGGTGYFAASSDMSTLFEDMELIRPTALALVPRVCDMVFQRFQTEVDRRLASGDTASAEAVAAEVKADIRDNLFGGRVSAVMVGSAPLSEELGEFIESCFELNLTDGYGSTEAGMVFRDGIVQRPPVIDYKLVDVPELGYFSTDKPHPRGELLLKTDGMFLGYYKRPEVTASVFDADGFYMTGDIVAELAHDNIEIIDRRNNVLKLSQGEFVAVATLEAEYANSPVVHQIYVYGSSERSYLLAVVVPTPEAVAAAKGDAAALKTTIADSLQDIAKEIQLQSYEVPRDFIIEPQPFTQGNGLLTGIAKLARPNLKAHYGPRLEQMYAEIAEQQAAELRALHGVDPDKPALETVLKAAQALLGVSSAELAADAHFTDLGGDSLSALSFSDLLRDIFAVEVPVGVIVSAANDLGGVAKFVDEQRHSGGTRPTAETVHGAGHTEIRAADLTLDKFIDEATLHAAPSLPKAAGIPHTVLLTGSNGYLGHYLALEWLERLDKTDGKLIVIVRGKNAEAAYGRLEEAFDTGDTELLAHFRSLADKHLEVLAGDIGDPNLGLDADTWQRLADTVDVIVHPAALVNHVLPYNQLFGPNVVGTAEIIKLAITTKIKPVTYLSTVAVAAYVDPTTFDEESDIRLISAVRPIDDGYANGYGNAKWAGEVLLREAHDLCGLPVAVFRSDMILAHSRYTGQLNVPDQFTRLILSLIATGIAPGSFYQAQTTGERPLAHYDGLPGDFTAEAITTLGTQVPEGSEGFVTYDCVNPHADGISLDNFVDWLIEAGYPIARIDNYTEWFTRFDTAIRGLSEKQKQHSLLPLLHAFEQPSAAENHGVVPAKRFQHAVQAAGIGPVGQDGTTDIPHLSRRLIVKYAKDLEQLGLL
modifications: Mycobacterium massiliense
In the case of B2, the “acceptance of N7-acetyl-7-aminoheptanoate as substrate (NADPH consumption, absorbance at 340 nm)” value in assay [4] is “accepted N7-acetyl-7-aminoheptanoate as substrate”.

B3: SEQ ID NO 3: Mycobacterium smegmatis carboxylate reductase, Genbank Accession No. ABK71854.1 (protein, listed as Mycobacterium smegmatis)
chain: MTSDVHDATDGVTETALDDEQSTRRIAELYATDPEFAAAAPLPAVVDAAHKPGLRLAEILQTLFTGYGDRPALGYRARELATDEGGRTVTRLLPRFDTLTYAQVWSRVQAVAAALRHNFAQPIYPGDAVATIGFASPDYLTLDLVCAYLGLVSVPLQHNAPVSRLAPILAEVEPRILTVSAEYLDLAVESVRDVNSVSQLVVFDHHPEVDDHRDALARAREQLAGKGIAVTTLDAIADEGAGLPAEPIYTADHDQRLAMILYTSGSTGAPKGAMYTEAMVARLWTMSFITGDPTPVINVNFMPLNHLGGRIPISTAVQNGGTSYFVPESDMSTLFEDLALVRPTELGLVPRVADMLYQHHLATVDRLVTQGADELTAEKQAGAELREQVLGGRVITGFVSTAPLAAEMRAFLDITLGAHIVDGYGLTETGAVTRDGVIVRPPVIDYKLIDVPELGYFSTDKPYPRGELLVRSQTLTPGYYKRPEVTASVFDRDGYYHTGDVMAETAPDHLVYVDRRNNVLKLAQGEFVAVANLEAVFSGAALVRQIFVYGNSERSFLLAVVVPTPEALEQYDPAALKAALADSLQRTARDAELQSYEVPADFIVETEPFSAANGLLSGVGKLLRPNLKDRYGQRLEQMYADIAATQANQLRELRRAAATQPVIDTLTQAAATILGTGSEVASDAHFTDLGGDSLSALTLSNLLSDFFGFEVPVGTIVNPATNLAQLAQHIEAQRTAGDRRPSFTTVHGADATEIRASELTLDKFIDAETLRAAPGLPKVTTEPRTVLLSGANGWLGRFLTLQWLERLAPVGGTLITIVRGRDDAAARARLTQAYDTDPELSRRFAELADRHLRVVAGDIGDPNLGLTPEIWHRLAAEVDLVVHPAALVNHVLPYRQLFGPNVVGTAEVIKLALTERIKPVTYLSTVSVAMGIPDFEEDGDIRTVSPVRPLDGGYANGYGNSKWAGEVLLREAHDLCGLPVATFRSDMILAHPRYRGQVNVPDMFTRLLLSLLITGVAPRSFYIGDGERPRAHYPGLTVDFVAEAVTTLGAQQREGYVSYDVMNPHDDGISLDVFVDWLIRAGHPIDRVDDYDDWVRRFETALTALPEKRRAQTVLPLLHAFRAPQAPLRGAPEPTEVFHAAVRTAKVGPGDIPHLDEALIDKYIRDLREFGLI
In the case of B3, the “acceptance of N7-acetyl-7-aminoheptanoate as substrate (NADPH consumption, absorbance at 340 nm)” value in assay [4] is “accepted N7-acetyl-7-aminoheptanoate as substrate”.

B4: SEQ ID NO 13: Vibrio fluvialis ω-transaminase, Genbank Accession No. AEA39183.1 (protein, listed as Vibrio fluvialis)
chain: MNKPQSWEARAETYSLYGFTDMPSLHQRGTVVVTHGEGPYIVDVNGRRYLDANSGLWNMVAGFDHKGLIDAAKAQYERFPGYHAFFGRMSDQTVMLSEKLVEVSPFDSGRVFYTNSGSEANDTMVKMLWFLHAAEGKPQKRKILTRWNAYHGVTAVSASMTGKPYNSVFGLPLPGFVHLTCPHYWRYGEEGETEEQFVARLARELEETIQREGADTIAGFFAEPVMGAGGVIPPAKGYFQAILPILRKYDIPVISDEVICGFGRTGNTWGCVTYDFTPDAIISSKNLTAGFFPMGAVILGPELSKRLETAIEAIEEFPHGFTASGHPVGCAIALKAIDVVMNEGLAENVRRLAPRFEERLKHIAERPNIGEYRGIGFMWALEAVKDKASKTPFDGNLSVSERIANTCTDLGLICRPLGQSVVLCPPFILTEAQMDEMFDKLEKALDKVFAEVA
B4: in assay [2], the “acceptance of 7-aminoheptanoate as substrate (formation of L-alanine from pyruvate, RP-HPLC)” value is on record as “accepted 7-aminoheptanote as substrate”. In assay [3], the “acceptance of pimelate semialdehyde as substrate (formation of pyruvate from L-alanine, RP-HPLC)” value is “accepted pimelate semialdehyde as substrate” and the “acceptance of pimelate semialdehyde as substrate, synthesizing 7-aminoheptanoate (conclusion from confirmed reversibility)” value is recorded as “accepted pimelate semialdehyde as substrate”.
